Data set [1] deals with SEP3Δtet (SEP3 splice variant);AG (AGAMOUS) (Arabidopsis thaliana;Arabidopsis …, UniProt F4I972;P17839 1-237;1-252, del161-174|). The data set is described as follows: EMSA; dimer; EMSA as in the authors' ref. 20 (buffer, salt, pH, temperature not given); Cy5 probes; unpurified wheat germ TnT proteins. The note with it: protein: ivt;ivt; tags: C-terminal 3xFLAG;C-terminal 5xMyc; copies: 1;1; label: Cy5; blunt. (In general: In EMSA bound probe runs differently from free probe, usually more slowly.)

Another data set deals with SEP3 (…3);AG (AGAMOUS) (Arabidopsis thaliana;Arabidopsis …, UniProt O22456;P17839 1-251;1-252, |). The data set is described as follows: EMSA; tetramer; EMSA as in the authors' ref. 20 (buffer, salt, pH, temperature not given); Cy5 probes; unpurified wheat germ TnT proteins. The note with it: protein: ivt;ivt; tags: C-terminal 3xFLAG;C-terminal 5xMyc; copies: 1;1; label: Cy5; blunt.
Sequence of SEP3 (…3);AG (AGAMOUS) (O22456 whole entry, chain 1 of 2): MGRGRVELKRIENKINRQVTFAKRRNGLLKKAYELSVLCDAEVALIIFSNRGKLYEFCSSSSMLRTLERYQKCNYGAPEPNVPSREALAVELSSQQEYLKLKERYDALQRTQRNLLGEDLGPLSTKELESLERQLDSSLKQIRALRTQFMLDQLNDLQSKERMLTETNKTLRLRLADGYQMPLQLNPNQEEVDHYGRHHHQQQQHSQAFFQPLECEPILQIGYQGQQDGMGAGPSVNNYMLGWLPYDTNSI
Sequence of SEP3 (…3);AG (AGAMOUS) (P17839 whole entry, chain 2 of 2): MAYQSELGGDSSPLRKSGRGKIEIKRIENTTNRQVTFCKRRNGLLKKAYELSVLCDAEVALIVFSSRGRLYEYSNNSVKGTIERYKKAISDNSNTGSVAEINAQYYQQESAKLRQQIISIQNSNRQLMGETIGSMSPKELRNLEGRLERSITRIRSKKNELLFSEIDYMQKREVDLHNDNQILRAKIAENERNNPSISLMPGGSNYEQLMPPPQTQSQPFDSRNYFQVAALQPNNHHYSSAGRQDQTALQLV

Sequence of SEP3Δtet (SEP3 splice variant);AG (AGAMOUS) (P17839 other isoform, or with tags, fused parts or gaps del161-174| | mutant, chain 1 of 2): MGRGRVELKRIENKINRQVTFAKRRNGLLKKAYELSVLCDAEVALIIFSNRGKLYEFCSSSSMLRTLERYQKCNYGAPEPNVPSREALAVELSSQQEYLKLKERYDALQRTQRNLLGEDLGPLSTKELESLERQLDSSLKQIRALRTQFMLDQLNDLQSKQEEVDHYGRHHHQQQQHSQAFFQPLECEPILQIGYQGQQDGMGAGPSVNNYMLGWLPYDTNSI
Sequence of SEP3Δtet (SEP3 splice variant);AG (AGAMOUS) (P17839 whole entry, stated change not applied, chain 2 of 2, canonical isoform): as the sequence (P17839 whole entry, chain 2 of 2) above

B1: KNU +5 (96 bp) (dsDNA)
DNA 1: AGAGAAACATAGAAACCTTCCATGTTTGGCAATTTCATCTTGGAAGTCAGCTTGATTCACTCTCTCTTGTCTTCTTTGTGCATCACAAGAACAACA
DNA 2: TGTTGTTCTTGTGATGCACAAAGAAGACAAGAGAGAGTGAATCAAGCTGACTTCCAAGATGAAATTGCCAAACATGGAAGGTTTCTATGTTTCTCT
On to B1, for which the binding result in data set [1] was “binds”.

B2: KNU +10 probe (106 bp) (dsDNA)
DNA 1: GGTAAGAGAAACATAGAAACCTTCCATGTTTGGCAATTTCATCTTGGAAGTCAGTAGCTCTTGATTCACTCTCTCTTGTCTTCTTTGTGCATCACAAGAACAACAA
DNA 2: TTGTTGTTCTTGTGATGCACAAAGAAGACAAGAGAGAGTGAATCAAGAGCTACTGACTTCCAAGATGAAATTGCCAAACATGGAAGGTTTCTATGTTTCTCTTACC
Consider B2, for which the binding result with SEP3 (…3);AG (AGAMOUS) is reported as “binds”.

B3: KNU -10 probe (86 bp) (dsDNA)
DNA 1: GGTAAGAGAAACATAGAAACCTTCCATGTTTGGCAATTTCATCTTGGACTCTCTCTTGTCTTCTTTGTGCATCACAAGAACAACAA
DNA 2: TTGTTGTTCTTGTGATGCACAAAGAAGACAAGAGAGAGTCCAAGATGAAATTGCCAAACATGGAAGGTTTCTATGTTTCTCTTACC
With B3, the binding result with SEP3 (…3);AG (AGAMOUS) is “binds”.

B4: KNU -10 (96 bp) (dsDNA)
DNA 1: GAAAGAGGGTAAGAGAAACATAGAAACCTTCCATGTTTGGCAATTTCATCTTGGACTCTCTCTTGTCTTCTTTGTGCATCACAAGAACAACAAATA
DNA 2: TATTTGTTGTTCTTGTGATGCACAAAGAAGACAAGAGAGAGTCCAAGATGAAATTGCCAAACATGGAAGGTTTCTATGTTTCTCTTACCCTCTTTC
For B4, the binding result (in data set [1]; in the data set with SEP3 (…3);AG (AGAMOUS)) was “binds” throughout.

B5: KNU +10 (96 bp) (dsDNA)
DNA 1: AAACATAGAAACCTTCCATGTTTGGCAATTTCATCTTGGAAGTCAGTAGCTCTTGATTCACTCTCTCTTGTCTTCTTTGTGCATCACAAGAACAAC
DNA 2: GTTGTTCTTGTGATGCACAAAGAAGACAAGAGAGAGTGAATCAAGAGCTACTGACTTCCAAGATGAAATTGCCAAACATGGAAGGTTTCTATGTTT
Consider B5, for which the binding result (in data set [1]; in the data set with SEP3 (…3);AG (AGAMOUS)) was “binds” throughout.

B6: KNU WT (dsDNA)
DNA 1: GGTAAGAGAAACATAGAAACCTTCCATGTTTGGCAATTTCATCTTGGAACTTGATTCACTCTCTCTTGTCTTCTTTGTGCATCACAAGAACAACAA
DNA 2: TTGTTGTTCTTGTGATGCACAAAGAAGACAAGAGAGAGTGAATCAAGTTCCAAGATGAAATTGCCAAACATGGAAGGTTTCTATGTTTCTCTTACC
As to B6, the binding result (in data set [1]; with SEP3 (…3);AG (AGAMOUS)) was “binds” throughout.

B7: KNU -5 (96 bp) (dsDNA)
DNA 1: AGAGGGTAAGAGAAACATAGAAACCTTCCATGTTTGGCAATTTCATCTTGGAACTTACTCTCTCTTGTCTTCTTTGTGCATCACAAGAACAACAAA
DNA 2: TTTGTTGTTCTTGTGATGCACAAAGAAGACAAGAGAGAGTAAGTTCCAAGATGAAATTGCCAAACATGGAAGGTTTCTATGTTTCTCTTACCCTCT
For the molecule B7, the binding result in data set [1] is on record as “binds”.
